Reference: patent US20250333467A1 (TECTONIC OPERATING, published 2025)

T1: human RXFP1 (human, UniProt Q9HBX9 1-757)
T1 sequence (looked up): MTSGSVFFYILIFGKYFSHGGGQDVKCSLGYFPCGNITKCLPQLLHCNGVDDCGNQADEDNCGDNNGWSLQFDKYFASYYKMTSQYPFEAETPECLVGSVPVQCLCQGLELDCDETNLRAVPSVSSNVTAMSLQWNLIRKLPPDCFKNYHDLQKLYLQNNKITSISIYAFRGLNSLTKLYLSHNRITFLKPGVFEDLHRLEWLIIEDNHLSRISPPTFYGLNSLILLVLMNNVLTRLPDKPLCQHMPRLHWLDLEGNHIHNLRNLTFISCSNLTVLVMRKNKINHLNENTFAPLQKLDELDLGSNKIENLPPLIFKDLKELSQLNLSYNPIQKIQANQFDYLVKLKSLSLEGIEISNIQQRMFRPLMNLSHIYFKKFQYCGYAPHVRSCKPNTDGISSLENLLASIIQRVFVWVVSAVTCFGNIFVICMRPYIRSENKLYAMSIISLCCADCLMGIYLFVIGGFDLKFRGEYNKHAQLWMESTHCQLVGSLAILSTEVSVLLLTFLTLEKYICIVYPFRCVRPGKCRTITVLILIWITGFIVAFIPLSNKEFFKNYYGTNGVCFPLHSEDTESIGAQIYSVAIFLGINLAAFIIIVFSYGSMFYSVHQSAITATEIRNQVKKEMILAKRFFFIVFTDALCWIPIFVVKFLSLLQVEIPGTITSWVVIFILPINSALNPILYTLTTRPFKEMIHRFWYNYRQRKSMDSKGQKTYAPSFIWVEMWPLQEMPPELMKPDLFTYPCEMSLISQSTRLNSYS


Target: T1, human RXFP1
Assay: cell-based or functional assay

Row | Binder | Potency (cAMP, transient hRXFP1 in HEK293)
1 | SEQ ID NO: 84 (Fc fusion) DKTHTCPPCPAPEAAGGPSVFLFPPKPKDTLMISRTPEVTCVVVDVSHEDPEVKFNWYVDGVEVHNAKTKPREEQYNSTYRVVSVLTVLHQDWLNGKEYKCKVSNKALAAPIEKTISKAKGQPREPQVYTLPPSRDELTKNQVSLTCLVKGFYPSDIAVEWESNGQPENNYKTTPPVLDSDGSFFLYSKLTVDKSRWQQGNVFSCSVLHEALHSHYTQKSLSLSPGKGGSDSWQEEVIKLCGRELVRAQIAICGKSTASDAAGADANAGARQLYSALANKCCHVGCTKRSLAQFC | 1.9 nM
2 | SEQ ID NO: 92 (Fc fusion) DKTHTCPPCPAPEAAGGPSVFLFPPKPKDTLMISRTPEVTCVVVDVSHEDPEVKFNWYVDGVEVHNAKTKPREEQYNSTYRVVSVLTVLHQDWLNGKEYKCKVSNKALAAPIEKTISKAKGQPREPQVYTLPPSRDELTKNQVSLTCLVKGFYPSDIAVEWESNGQPENNYKTTPPVLDSDGSFFLYSKLTVDKSRWQQGNVFSCSVLHEALHSHYTQKSLSLSPGEGGSDSWQEEVIKLCGRELVRAQIAICGKSTASDAAGANADAGARQLYSALANKCCHVGCTKRSLAQFC | 4.3 nM
3 | SEQ ID NO: 97 (Fc fusion) DKTHTCPPCPAPEAAGGPSVFLFPPKPKDTLMISRTPEVTCVVVDVSHEDPEVKFNWYVDGVEVHNAKTKPREEQYNSTYRVVSVLTVLHQDWLNGKEYKCKVSNKALAAPIEKTISKAKGQPREPQVYTLPPSRDELTKNQVSLTCLVKGFYPSDIAVEWESNGQPENNYKTTPPVLDSDGSFFLYSKLTVDKSRWQQGNVFSCSVLHEALHSHYTQKSLSLSPGEGGSDSWQEEVIKLCGRELVRAQIAICGKSTASDAAGAQAQAGARQLYSALANKCCHVGCTKRSLAQFC | 1.3 nM
4 | SEQ ID NO: 88 (Fc fusion) DKTHTCPPCPAPEAAGGPSVFLFPPKPKDTLMISRTPEVTCVVVDVSHEDPEVKFNWYVDGVEVHNAKTKPREEQYNSTYRVVSVLTVLHQDWLNGKEYKCKVSNKALAAPIEKTISKAKGQPREPQVYTLPPSRDELTKNQVSLTCLVKGFYPSDIAVEWESNGQPENNYKTTPPVLDSDGSFFLYSKLTVDKSRWQQGNVFSCSVLHEALHSHYTQKSLSLSPGKGGSDSWQEEVIKLCGRELVRAQIAICGKSTASDAAGAQADAGARQLYSALANKCCHVGCTKRSLAQFC | 1.4 nM
5 | SEQ ID NO: 99 (Fc fusion) DKTHTCPPCPAPEAAGGPSVFLFPPKPKDTLMISRTPEVTCVVVDVSHEDPEVKFNWYVDGVEVHNAKTKPREEQYNSTYRVVSVLTVLHQDWLNGKEYKCKVSNKALAAPIEKTISKAKGQPREPQVYTLPPSRDELTKNQVSLTCLVKGFYPSDIAVEWESNGQPENNYKTTPPVLDSDGSFFLYSKLTVDKSRWQQGNVFSCSVLHEALHSHYTQKSLSLSPGEGGSDSWQEEVIKLCGRELVRAQIAICGQSTASDAAGANADAGARQLYSALANKCCHVGCTKRSLAQFC | 9.4 nM
6 | SEQ ID NO: 94 (Fc fusion) DKTHTCPPCPAPEAAGGPSVFLFPPKPKDTLMISRTPEVTCVVVDVSHEDPEVKFNWYVDGVEVHNAKTKPREEQYNSTYRVVSVLTVLHQDWLNGKEYKCKVSNKALAAPIEKTISKAKGQPREPQVYTLPPSRDELTKNQVSLTCLVKGFYPSDIAVEWESNGQPENNYKTTPPVLDSDGSFFLYSKLTVDKSRWQQGNVFSCSVLHEALHSHYTQKSLSLSPGEGGSDSWQEEVIKLCGRELVRAQIAICGKSTASDAAGAEAEAGARQLYSALANKCCHVGCTKRSLAQFC | 12.2 nM
7 | SEQ ID NO: 85 (Fc fusion) DKTHTCPPCPAPEAAGGPSVFLFPPKPKDTLMISRTPEVTCVVVDVSHEDPEVKFNWYVDGVEVHNAKTKPREEQYNSTYRVVSVLTVLHQDWLNGKEYKCKVSNKALAAPIEKTISKAKGQPREPQVYTLPPSRDELTKNQVSLTCLVKGFYPSDIAVEWESNGQPENNYKTTPPVLDSDGSFFLYSKLTVDKSRWQQGNVFSCSVLHEALHSHYTQKSLSLSPGKGGSDSWQEEVIKLCGRELVRAQIAICGKSTASDAAGANADAGARQLYSALANKCCHVGCTKRSLAQFC | 2 nM
8 | SEQ ID NO: 96 (Fc fusion) DKTHTCPPCPAPEAAGGPSVFLFPPKPKDTLMISRTPEVTCVVVDVSHEDPEVKFNWYVDGVEVHNAKTKPREEQYNSTYRVVSVLTVLHQDWLNGKEYKCKVSNKALAAPIEKTISKAKGQPREPQVYTLPPSRDELTKNQVSLTCLVKGFYPSDIAVEWESNGQPENNYKTTPPVLDSDGSFFLYSKLTVDKSRWQQGNVFSCSVLHEALHSHYTQKSLSLSPGEGGSDSWQEEVIKLCGRELVRAQIAICGKSTASDAAGADAQAGARQLYSALANKCCHVGCTKRSLAQFC | 9.9 nM
9 | SEQ ID NO: 89 (Fc fusion) DKTHTCPPCPAPEAAGGPSVFLFPPKPKDTLMISRTPEVTCVVVDVSHEDPEVKFNWYVDGVEVHNAKTKPREEQYNSTYRVVSVLTVLHQDWLNGKEYKCKVSNKALAAPIEKTISKAKGQPREPQVYTLPPSRDELTKNQVSLTCLVKGFYPSDIAVEWESNGQPENNYKTTPPVLDSDGSFFLYSKLTVDKSRWQQGNVFSCSVLHEALHSHYTQKSLSLSPGKGGSDSWQEEVIKLCGRELVRAQIAICGKSTASDAAGADAQAGARQLYSALANKCCHVGCTKRSLAQFC | 2.5 nM

More lines, now with the values ahead:

Row | Potency (cAMP, transient hRXFP1 in HEK293) | Binder
10 | 29.4 nM | SEQ ID NO: 101 (Fc fusion) DKTHTCPPCPAPEAAGGPSVFLFPPKPKDTLMISRTPEVTCVVVDVSHEDPEVKFNWYVDGVEVHNAKTKPREEQYNSTYRVVSVLTVLHQDWLNGKEYKCKVSNKALAAPIEKTISKAKGQPREPQVYTLPPSRDELTKNQVSLTCLVKGFYPSDIAVEWESNGQPENNYKTTPPVLDSDGSFFLYSKLTVDKSRWQQGNVFSCSVLHEALHSHYTQKSLSLSPGEGGSDSWQEEVIKLCGRELVRAQIAICGQSTASDAAGAEAEAGARQLYSALANKCCHVGCTKRSLAQFC
11 | 7.5 nM | SEQ ID NO: 102 (Fc fusion) DKTHTCPPCPAPEAAGGPSVFLFPPKPKDTLMISRTPEVTCVVVDVSHEDPEVKFNWYVDGVEVHNAKTKPREEQYNSTYRVVSVLTVLHQDWLNGKEYKCKVSNKALAAPIEKTISKAKGQPREPQVYTLPPSRDELTKNQVSLTCLVKGFYPSDIAVEWESNGQPENNYKTTPPVLDSDGSFFLYSKLTVDKSRWQQGNVFSCSVLHEALHSHYTQKSLSLSPGEGGSDSWQEEVIKLCGRELVRAQIAICGQSTASDAAGAQADAGARQLYSALANKCCHVGCTKRSLAQFC
12 | 14 nM | SEQ ID NO: 106 (Fc fusion) DKTHTCPPCPAPEAAGGPSVFLFPPKPKDTLMISRTPEVTCVVVDVSHEDPEVKFNWYVDGVEVHNAKTKPREEQYNSTYRVVSVLTVLHQDWLNGKEYKCKVSNKALAAPIEKTISKAKGQPREPQVYTLPPSRDELTKNQVSLTCLVKGFYPSDIAVEWESNGQPENNYKTTPPVLDSDGSFFLYSKLTVDKSRWQQGNVFSCSVLHEALHSHYTQKSLSLSPGEGGSDSWQEEVIKLCGRELVRAQIAICGKSTASDAAGANADAGARQLYSALANKCCHVGCTKQSLAQFC
13 | 12.2 nM | SEQ ID NO: 103 (Fc fusion) DKTHTCPPCPAPEAAGGPSVFLFPPKPKDTLMISRTPEVTCVVVDVSHEDPEVKFNWYVDGVEVHNAKTKPREEQYNSTYRVVSVLTVLHQDWLNGKEYKCKVSNKALAAPIEKTISKAKGQPREPQVYTLPPSRDELTKNQVSLTCLVKGFYPSDIAVEWESNGQPENNYKTTPPVLDSDGSFFLYSKLTVDKSRWQQGNVFSCSVLHEALHSHYTQKSLSLSPGEGGSDSWQEEVIKLCGRELVRAQIAICGQSTASDAAGADAQAGARQLYSALANKCCHVGCTKRSLAQFC
14 | 28.7 nM | SEQ ID NO: 100 (Fc fusion) DKTHTCPPCPAPEAAGGPSVFLFPPKPKDTLMISRTPEVTCVVVDVSHEDPEVKFNWYVDGVEVHNAKTKPREEQYNSTYRVVSVLTVLHQDWLNGKEYKCKVSNKALAAPIEKTISKAKGQPREPQVYTLPPSRDELTKNQVSLTCLVKGFYPSDIAVEWESNGQPENNYKTTPPVLDSDGSFFLYSKLTVDKSRWQQGNVFSCSVLHEALHSHYTQKSLSLSPGEGGSDSWQEEVIKLCGRELVRAQIAICGQSTASDAAGADADAGARQLYSALANKCCHVGCTKRSLAQFC
15 | 9.3 nM | SEQ ID NO: 327 (Fc fusion) DKTHTCPPCPAPEAAGGPSVFLFPPKPKDTLMISRTPEVTCVVVDVSHEDPEVKFNWYVDGVEVHNAKTKPREEQYNSTYRVVSVLTVLHQDWLNGKEYKCKVSNKALAAPIEKTISKAKGQPREPQVYTLPPSRDELTKNQVSLTCLVKGFYPSDIAVEWESNGQPENNYKTTPPVLDSDGSFFLYSKLTVDKSRWQQGNVFSCSVLHEALHSHYTQKSLSLSPGGGSDSWQEEVIKLCGRELVRAQIAICGKSTGGEGEGGEGEGGSRQLYSALANKCCHVGCTKRSLARFC
16 | 41.9 nM | SEQ ID NO: 328 (Fc fusion) DKTHTCPPCPAPEAAGGPSVFLFPPKPKDTLMISRTPEVTCVVVDVSHEDPEVKFNWYVDGVEVHNAKTKPREEQYNSTYRVVSVLTVLHQDWLNGKEYKCKVSNKALAAPIEKTISKAKGQPREPQVYTLPPSRDELTKNQVSLTCLVKGFYPSDIAVEWESNGQPENNYKTTPPVLDSDGSFFLYSKLTVDKSRWQQGNVFSCSVLHEALHSHYTQKSLSLSPGGGSDSWQEEVIKLCGRELVRAQIAICGKSTGGEGEGGEGEGGSRQLYSALANKCCHVGCTKRSLAQFC
